This test addresses GST-PTN(60-110) fusion protein (human). As to the kind of experiment: pull-down.

Chain of GST-PTN(60-110) fusion protein (human) (P21246 60-110): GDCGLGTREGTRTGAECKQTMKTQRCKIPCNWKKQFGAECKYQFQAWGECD

For the substance “Neuropilin-1 (NRP-1), endogenous (from UniProt O14786 22-923) (receptor)”, the NRP-1 pulled down, percent of that with GST-PTN(1-136) came out at 45%.

The values are drawn from paper PMC4674489.
